Experimental data taken from US20250066499A1 (SUNSHINE GUOJIAN PHARMACEUTICAL SHANGHAI, published 2025).

Columns and labels:
Assay in all cases: ELISA; decline multiple of Top against CD73-ND
CD73-ND-his = target: T1, CD73-ND-his (human, UniProt P21589 27-317)
T1 construct: Biotinylated and captured on streptavidin in the ELISA
T1 sequence: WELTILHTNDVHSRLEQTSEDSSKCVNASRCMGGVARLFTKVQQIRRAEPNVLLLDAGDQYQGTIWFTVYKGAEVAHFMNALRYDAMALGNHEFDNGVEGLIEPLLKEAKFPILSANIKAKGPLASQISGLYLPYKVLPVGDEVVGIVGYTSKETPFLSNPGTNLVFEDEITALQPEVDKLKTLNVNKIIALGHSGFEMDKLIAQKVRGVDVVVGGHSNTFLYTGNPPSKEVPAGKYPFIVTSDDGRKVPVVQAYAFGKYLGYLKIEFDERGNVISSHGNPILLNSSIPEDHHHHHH
Procedure: (§1) The ELISA plates were coated with SA protein diluted to 1.5 μg/mL in coating buffer (50 mM carbonate coating buffer, pH 9.6) and incubated overnight at 4° C. The supernatant was discarded, and the plates were washed three times with PBST. Then, 5% skimmed milk powder prepared with PBS was added for blocking and the plates were incubated for 2 h at 37° C. After washing the plates once with PBST, CD73-biotin protein (prepared by biotinylating CD73-His protein according to the EZ-Link NHS-Biotin Reagent instructions) was diluted to 0.5 μg/mL and added at 100 μL/well for incubation at room temperature for 1 h. The plates were washed three times with PBST, and the prepared murine-derived monoclonal antibodies against human CD73 were serially diluted with 1% BSA buffer prepared with PBST and added to the ELISA plates at 100 μl/well. The plates were incubated at 37° C. for 1 h. After washing the plates three times with PBST, HRP-labeled goat anti-mouse IgG secondary antibody was added and the plates were incubated for 30 min at 37° C. After washing the plates three times with PBST, the residual droplets were patted dry on absorbent paper as much as possible. Then, 100 μl of TMB color developing solution was added to each well, and the plates were incubated in the dark at room temperature for 5 min for color development. Subsequently, 50 μl of 2M H₂SO₄ stop solution was added to each well to terminate the substrate reaction. The OD values were read at 450 nm using a multimode microplate reader to analyze the binding ability of the tested antibodies to the target antigen human CD73-His.
(§2) Referring to the experimental method in Example 3, the affinity of 48A11-HuV33 for various mutant proteins of CD73-ND was determined. The SA protein was diluted to 1 μg/mL for coating the ELISA plates, and the biotinylated CD73 protein (CD73-biotin) was used at a concentration of 0.1 μg/mL.

CD73-ND-V144A = target: T2, CD73-ND-V144A (human, UniProt P21589 27-317)
T2 construct: Alanine mutant of CD73-ND
T2 sequence: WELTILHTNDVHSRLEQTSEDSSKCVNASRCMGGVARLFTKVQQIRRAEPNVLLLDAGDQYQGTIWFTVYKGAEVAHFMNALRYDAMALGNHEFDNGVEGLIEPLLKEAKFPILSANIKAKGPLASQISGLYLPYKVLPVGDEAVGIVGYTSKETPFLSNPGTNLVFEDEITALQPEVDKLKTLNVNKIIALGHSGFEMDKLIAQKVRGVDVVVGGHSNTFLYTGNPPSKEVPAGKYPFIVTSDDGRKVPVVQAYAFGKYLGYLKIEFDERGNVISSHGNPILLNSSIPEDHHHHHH
Procedure: as §1, §2

CD73-ND-L181A = target: T3, CD73-ND-L181A (human, UniProt P21589 27-317)
T3 construct: Alanine mutant of CD73-ND
T3 sequence: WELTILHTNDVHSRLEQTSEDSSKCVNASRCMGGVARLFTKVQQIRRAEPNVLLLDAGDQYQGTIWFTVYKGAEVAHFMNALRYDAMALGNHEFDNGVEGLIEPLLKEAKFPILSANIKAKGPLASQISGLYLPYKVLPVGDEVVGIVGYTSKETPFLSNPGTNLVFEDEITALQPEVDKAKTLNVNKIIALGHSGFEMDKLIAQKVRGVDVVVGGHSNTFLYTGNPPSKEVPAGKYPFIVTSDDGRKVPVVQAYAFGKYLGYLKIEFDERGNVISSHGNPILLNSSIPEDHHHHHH
Procedure: as §1, §2

CD73-ND-K182A = target: T4, CD73-ND-K182A (human, UniProt P21589 27-317)
T4 construct: Alanine mutant of CD73-ND
T4 sequence: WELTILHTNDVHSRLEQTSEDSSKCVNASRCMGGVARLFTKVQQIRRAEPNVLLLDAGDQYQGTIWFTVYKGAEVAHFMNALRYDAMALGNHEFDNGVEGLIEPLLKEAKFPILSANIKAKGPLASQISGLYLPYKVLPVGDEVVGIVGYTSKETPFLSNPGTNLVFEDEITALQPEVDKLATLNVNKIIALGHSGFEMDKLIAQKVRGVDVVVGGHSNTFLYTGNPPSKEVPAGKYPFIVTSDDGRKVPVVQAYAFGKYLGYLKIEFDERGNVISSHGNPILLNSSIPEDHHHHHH
Procedure: as §1, §2

CD73-ND-T183A = target: T5, CD73-ND-T183A (human, UniProt P21589 27-317)
T5 construct: Alanine mutant of CD73-ND
T5 sequence: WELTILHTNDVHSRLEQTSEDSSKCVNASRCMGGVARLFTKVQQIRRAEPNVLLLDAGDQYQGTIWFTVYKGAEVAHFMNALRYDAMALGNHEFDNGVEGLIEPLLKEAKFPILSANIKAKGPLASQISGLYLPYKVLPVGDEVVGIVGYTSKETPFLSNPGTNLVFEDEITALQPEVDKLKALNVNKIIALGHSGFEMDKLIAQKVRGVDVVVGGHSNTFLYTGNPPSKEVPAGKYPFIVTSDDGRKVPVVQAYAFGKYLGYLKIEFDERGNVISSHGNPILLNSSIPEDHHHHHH
Procedure: as §1, §2

CD73-ND-N185A = target: T6, CD73-ND-N185A (human, UniProt P21589 27-317)
T6 construct: Alanine mutant of CD73-ND
T6 sequence: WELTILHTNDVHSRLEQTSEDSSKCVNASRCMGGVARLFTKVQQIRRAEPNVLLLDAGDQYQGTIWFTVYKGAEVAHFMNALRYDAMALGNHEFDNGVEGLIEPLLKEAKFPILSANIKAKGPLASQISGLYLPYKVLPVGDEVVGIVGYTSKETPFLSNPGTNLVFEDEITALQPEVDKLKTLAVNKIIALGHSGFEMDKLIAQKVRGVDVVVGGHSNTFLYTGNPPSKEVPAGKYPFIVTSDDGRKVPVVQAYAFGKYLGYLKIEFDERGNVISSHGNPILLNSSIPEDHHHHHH
Procedure: as §1, §2

B1: 48A11-HuV33 (antibody, human IgG4, V domains shown)
VH: QVQLVQSGAEVKKPGASVKVSCKASGYTFTSYWMHWVRQAPGQGLEWIGEINPSIGRTNYNEKFKSRVTLTRDTSTSTAYMELSSLRSEDTAVYYCARRVYGTMDYWGQGTLVTVSS
VL: DIQMTQSPSSLSASVGDRVTITCKASQDINSYLSWFQQKPGKSPKLLIYRANIWVDGVPSRFSGSGSGQDYTFTISSLQPEDIATYYCLQYDELYTFGQGTKVEIK
notes: Humanized
- Ratio(Top) (CD73-ND-his): 1 fold
- Ratio(Top) (CD73-ND-V144A): 1.2 fold
- Ratio(Top) (CD73-ND-L181A): 1.9 fold
- Ratio(Top) (CD73-ND-K182A): 1 fold
- Ratio(Top) (CD73-ND-T183A): 1 fold
- Ratio(Top) (CD73-ND-N185A): 1 fold
